Laboratory results taken from paper PMC4376459, “CXCR3 antagonist VUF10085 binds to an intrahelical site distinct from that of the broad spectrum antagonist TAK-779” (British Journal of Pharmacology, 2015).
Changes are numbered by the printed parent chain.

Columns and labels:
CXCR3 N132A [1] = biological target: T1, CXCR3 N132A (Homo sapiens, UniProt P49682, N132A); assay: Whole-cell 125I-CXCL11 binding assay, L1.2 transfectants; conditions: maximum concentration of CXCL11
T1 construct: expressed in transfected cells; host or cells: murine pre-B cell line L1.2, transient transfection
T1 sequence (P49682 1-368 N132A): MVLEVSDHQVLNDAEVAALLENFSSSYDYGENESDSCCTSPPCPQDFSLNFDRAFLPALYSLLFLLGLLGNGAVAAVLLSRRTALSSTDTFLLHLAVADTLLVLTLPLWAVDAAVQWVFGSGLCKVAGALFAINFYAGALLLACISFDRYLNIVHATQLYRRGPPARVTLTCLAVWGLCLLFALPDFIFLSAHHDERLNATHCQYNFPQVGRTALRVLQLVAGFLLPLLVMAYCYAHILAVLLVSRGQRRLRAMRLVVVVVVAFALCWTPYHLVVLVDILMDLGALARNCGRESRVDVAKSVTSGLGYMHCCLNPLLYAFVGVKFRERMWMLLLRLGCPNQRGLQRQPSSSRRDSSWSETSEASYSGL
Method: (§1) A previously described pcDNA3 plasmid containing human wild type (WT) CXCR3 cDNA with an HA epitope tag encoded at the N terminus (Meiser et al., [2008]) was used as a template for the generation of point mutants by PCR using the QuikChange II site-directed mutagenesis kit (Stratagene, Amsterdam, the Netherlands). All constructs were verified by DNA sequencing (Eurofins MWG Operon, Ebersberg, Germany) before use. L1.2 cells were transiently transfected by electroporation with 1 μg of vector DNA/10^6 cells at 330V, 975μF and incubated overnight in medium supplemented with 10 mM of sodium butyrate to enhance gene expression.
(§2) Whole-cell binding assays on transiently transfected L1.2 cells were performed as described previously (Vaidehi et al., [2009]) using 0.1 nM ^125I-CXCL11 (Perkin Elmer) and increasing concentrations of unlabeled CXCL11 or antagonist. Cell-associated radioactivity was counted in a Canberra Packard Cobra 5010 gamma counter (Canberra Packard, Pangebourne, UK). Curve fitting and subsequent data analysis was carried out using the program PRISM (GraphPad Software, Inc., San Diego, CA, USA) and IC50 values were obtained by non-linear regression analysis. In all experiments, each data point was assayed in duplicate, with each individual experiment repeated three times. Background binding levels obtained in the presence of a 1000–3000 molar excess of unlabelled chemokine were subtracted from each data point and data are presented as the percentage of counts obtained in the absence of competing ligand. KD values and the number of binding sites per cell were calculated from homologous binding curves prepared in Graph Pad Prism (La Jolla, CA, USA) as previously described (Nedjai et al., [2011]).

CXCR3 F207A [2] = biological target: T2, CXCR3 F207A (Homo sapiens, UniProt P49682, F207A); assay: as above; conditions: maximum concentration of CXCL11
T2 construct: expressed in transfected cells; host or cells: murine pre-B cell line L1.2, transient transfection
T2 sequence (P49682 1-368 F207A): T1 sequence (P49682 1-368 N132A) with A132N, F207A
Method: as §1, §2

CXCR3 Y271A [3] = biological target: T3, CXCR3 Y271A (Homo sapiens, UniProt P49682, Y271A); assay: as above; conditions: maximum concentration of CXCL11
T3 construct: expressed in transfected cells; host or cells: murine pre-B cell line L1.2, transient transfection
T3 sequence (P49682 1-368 Y271A): T1 sequence (P49682 1-368 N132A) with A132N, Y271A
Method: as §1, §2

CXCR3 N132A [4] = biological target: T1, CXCR3 N132A; assay: Chemotaxis assay, L1.2 transfectants migrating to CXCL11; assay type: cell-based
Method: as §1
(§3) Assays of chemotactic responsiveness were carried out as previously described (Vaidehi et al., [2009]) using 96-well ChemoTx® plates with 5 μm pores (Neuroprobe, Gaithersburg, MD, USA). Migrating cells were detected by the use of CellTiter Glo® Dye (Promega, Southampton, UK) and resulting luminescence measured using a TopCount scintillation counter (PerkinElmer, Waltham, MA, USA). Basal migration of cells to buffer alone was subtracted from the resulting data, with individual results expressed as a percentage of the total cells applied to the filter. In all experiments, each data point was assayed in duplicate. In every experiment, cells transiently expressing WT CXCR3 were used as a positive control.

CXCR3 F207A [5] = biological target: T2, CXCR3 F207A; assay: as above; assay type: cell-based
Method: as §1, §3

CXCR3 V275A = biological target: T4, CXCR3 V275A (Homo sapiens, UniProt P49682, V275A); assay: as above; assay type: cell-based
T4 construct: expressed in transfected cells; host or cells: murine pre-B cell line L1.2, transient transfection
T4 sequence (P49682 1-368 V275A): T1 sequence (P49682 1-368 N132A) with A132N, V275A
Method: as §1, §3

CXCR3 Y271A [6] = biological target: T3, CXCR3 Y271A; assay: as above; assay type: cell-based
Method: as §1, §3

With “CXCL11: recombinant human chemokine, CXCR3 agonist, purchased from PeproTech” the “displacement of 125I-CXCL11 by unlabelled CXCL11” value (from here on “displacement of 125I-CXCL11”) (CXCR3 N132A [1]) was “unable to displace 50%”, the “displacement of 125I-CXCL11” value (CXCR3 F207A [2]) was “unable to displace 50%” and the “displacement of 125I-CXCL11” value (CXCR3 Y271A [3]) was “unable to displace 50%”. The “% of WT chemotaxis to 30 nM CXCL11 (mean ± SEM)” value (CXCR3 N132A [4]) was 0.7 ± 0.5%, the “% of WT chemotaxis to 30 nM CXCL11 (mean ± SEM)” value (CXCR3 F207A [5]) was 0.8 ± 0.8% and the “% of WT chemotaxis to 30 nM CXCL11 (mean ± SEM)” value (CXCR3 V275A) was 52.9 ± 8.2%. The “% of WT chemotaxis to 30 nM CXCL11 (mean ± SEM)” value (CXCR3 Y271A [6]) was 1.0 ± 0.6%.
